Data published in paper PMC4987395.

Target: Arabidopsis thaliana plasmodesmata-located protein 1 (PDLP1) fused to RFP (Arabidopsis thaliana) (UniProt Q8GXV7)
Test: FRET or BRET; FRET-FLIM: GFP on the MP as donor, RFP on PDLP1 as acceptor; co-expressed by agroinfiltration in N. benthamiana leaves, measured at spots in plasmodesmata; donor fluorescence lifetime by time-correlated single-photon counting

UniProt Q8GXV7, sequence (Q8GXV7 22-303): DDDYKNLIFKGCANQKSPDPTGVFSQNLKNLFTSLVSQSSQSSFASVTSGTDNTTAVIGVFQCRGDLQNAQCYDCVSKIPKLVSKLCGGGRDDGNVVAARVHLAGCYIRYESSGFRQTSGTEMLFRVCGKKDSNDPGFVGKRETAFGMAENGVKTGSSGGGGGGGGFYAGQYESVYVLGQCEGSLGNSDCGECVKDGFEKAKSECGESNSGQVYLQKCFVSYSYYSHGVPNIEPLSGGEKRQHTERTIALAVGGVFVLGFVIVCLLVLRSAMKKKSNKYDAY

Substance: cowpea mosaic virus (CPMV) movement protein (48K) fused at its C-terminus to GFP (natural protein)
- FRET efficiency: 7.5%

Substance: grapevine fanleaf virus (GFLV) 2B movement protein with GFP fused at its N-terminus (natural protein)
- FRET efficiency: 6.7%
